Molecular target: T1, human B7-DC (human, UniProt Q9BQ51 20-273)
T1 construct: whole, on cells; also called hB7.DC; human B7-DC orthologue
T1 sequence (looked up): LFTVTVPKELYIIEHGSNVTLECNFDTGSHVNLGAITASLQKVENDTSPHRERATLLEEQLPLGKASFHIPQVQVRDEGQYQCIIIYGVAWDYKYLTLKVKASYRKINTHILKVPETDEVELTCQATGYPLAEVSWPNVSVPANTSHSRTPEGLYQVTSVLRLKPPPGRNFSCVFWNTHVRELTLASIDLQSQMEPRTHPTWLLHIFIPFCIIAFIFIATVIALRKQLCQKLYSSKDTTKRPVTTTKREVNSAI
Test: flow cytometry on Ltk cells transiently transfected with human B7-DC

B1: sHIgM12 (pentameric human monoclonal IgM/kappa antibody, B7-DC cross-linking antibody) (antibody)
heavy: QVQLQESGPGLLKPSETLSLTCTVSGGSVSLYYWSWIRQSPGKEPEWIGYIYSSGSTDYNPSLRSRVTISLDTSNNRFSLNLRSVTAADTAVYWCARSASIRGWFDPWGQGTLVTVSSGSASAPTLFPLVSCENSPSDTSSVAVGCLAQDFLPDSITFSWKYKNNSDISSTRGFPSVLRGGKYAATSQVLLPSKDVMQGTDEHVVCKVQHPNGNKEKNVPLPVIAELPPKVSVFVPPRDGFFGNPRKSKLICQATGFSPRQIQVSWLREGKQVGSGVTTDQVQAEAKESGPTTYKVTSTLTIKESDWLSQSMFTCRVDHRGLTFQQNASSMCVPDQDTAIRVFAIPPSFASIFLTKSTKLTCLVTDLTTYDSVTISWTRQNGEAVKTHTNISESHPNATFSAVGEASICEDDWNSGERFTCTVTHTDLPSPLKQTISRPKGVALHRPDVYLLPPAREQLNLRESATITCLVTGFSPADVFVQWMQRGQPLSPEKYVTSAPMPEPQAPGRYFAHSILTVSEEEWNTGETYTCVVAHEALPNRVTERTVDKSTGKPTLYNVSLVMSDTAGTCY
light: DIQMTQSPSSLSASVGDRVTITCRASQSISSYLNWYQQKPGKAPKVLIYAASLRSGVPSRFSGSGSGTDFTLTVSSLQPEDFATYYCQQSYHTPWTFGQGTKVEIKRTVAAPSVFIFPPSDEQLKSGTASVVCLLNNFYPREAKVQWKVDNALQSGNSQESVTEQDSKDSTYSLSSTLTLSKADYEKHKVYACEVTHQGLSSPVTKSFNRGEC
notes: also called intact sHIgM12; pentameric sHIgM12
- binding result: binds

Reference: patent EP2481750A1 (Mayo Foundation for Medical Education and Research, dated 2012)
